Data from patent US20060165681A1 (GlaxoSmithKline, published 2006).
Changes are numbered by the printed parent chain. Blank lines part the entries; values can stand above or below the binder they belong to.

Experiments:
[1] = biological target: T1, rat MAG-Fc fusion protein (R&D Systems; 538-MG) (rat; human, UniProt P07722 20-516, limits assumed); test: ELISA on coated rat MAG-Fc, purified antibody
T1 construct: Bought reagent coated on ELISA plates; not shown: human Fc
T1 sequence (looked up): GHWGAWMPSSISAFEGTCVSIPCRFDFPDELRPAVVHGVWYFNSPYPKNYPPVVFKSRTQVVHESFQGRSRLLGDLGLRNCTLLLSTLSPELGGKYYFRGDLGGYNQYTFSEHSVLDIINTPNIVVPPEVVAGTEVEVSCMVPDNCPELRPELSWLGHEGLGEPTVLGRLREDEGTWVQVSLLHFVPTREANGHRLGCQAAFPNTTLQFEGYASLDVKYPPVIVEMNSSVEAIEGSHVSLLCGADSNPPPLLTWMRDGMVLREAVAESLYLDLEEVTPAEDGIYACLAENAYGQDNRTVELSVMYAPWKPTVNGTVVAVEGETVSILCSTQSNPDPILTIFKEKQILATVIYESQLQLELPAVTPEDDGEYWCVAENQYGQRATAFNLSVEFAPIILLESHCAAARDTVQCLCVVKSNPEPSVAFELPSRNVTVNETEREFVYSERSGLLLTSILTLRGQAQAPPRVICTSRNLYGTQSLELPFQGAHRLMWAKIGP

[2] = biological target: T1, rat MAG-Fc fusion protein (R&D Systems; …); test: ELISA on coated rat MAG-Fc; purified antibody serially diluted from 5000 ng/ml
Experimental: 96-well Nunc Maxisorp plates were coated overnight at 4° C. with rat MAG-Fc fusion protein (2.5 μg/ml; R&D Systems; Cat.No. 538-MG) in PBS. Plates were washed twice with PBS containing Tween20 (0.1% v/v; PBST) and blocked with PBS containing BSA (1% w/v) for 1 h at room temperature (RT). Purified humanised antibody was adjusted to a starting concentration of 5 μg/ml in blocking buffer and then serial diluted. Antibody samples were incubated 1 h at RT and plates then washed 3× with PBST. Secondary antibody (Goat anti-human light chain specific-peroxidase conjugate; Sigma A-7164) was added diluted 1/5000 in blocking buffer and incubated for 1 h at RT. Wells were washed three times as above and binding detected by adding substrate (OPD tablets dissolved according to instructions; Sigma P-9187). Colour development was monitored and the reaction stopped using 3M H₂SO₄ Colour development was read at 490 nm.

binding result [1]: binds
B1: humanised anti-MAG antibody BVh1/CVl1 (antibody, V domains shown)
VH: QVQLVQSGSELKKPGASVKVSCKASGYTFTNYGMNWVRQAPGQGLEWMGWINTYTGEPTYADDFTGRFVFSLDTSVSTAYLQISSLKAEDTAVYYCARNPINYYGINYEGYVMDYWGQGTLVTVSS
VL: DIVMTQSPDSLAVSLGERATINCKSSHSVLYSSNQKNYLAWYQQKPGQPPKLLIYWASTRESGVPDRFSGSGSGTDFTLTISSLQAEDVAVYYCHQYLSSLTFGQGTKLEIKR
notes: The purified material has a mutated human IgG1 constant region (Kabat residues 248 and 250 changed to alanine) and a human kappa light chain; The antibody was also tested as culture supernatant on human MAG, and the constant region is not restated there; also called BVh1/CVl1 mutated IgG1

binding result [2]: binds
B2: humanised anti-MAG antibody BVh3/CVl3 (antibody, human IgG1, V domains shown)
VH: B1 VH with V93T, Y95F
VL: DIVMTQSPDSLAVSLGERATINCKSSHSVLYSSNQKNYLAWYQQKPGQPPKLLIYWASTRESGVPDRFSGSGSGTDFTLTISSLHTEDVAVYYCHQYLSSLTFGQGTKLEIKR
notes: The antibody was also tested as culture supernatant on human MAG
